Test [1] has as its target Glycine oxidase from Pseudoalteromonas luteoviolacea CPMOR-2 (PlGoxA) (Pseudoalteromonas luteoviolacea CPMOR-2). The test can be described thus: SEC. A general note: SEC sorts molecules by how far they enter the pores of the column.
Test [2] shares this target. The test can be described thus: crystal structure.

Broadly, the stoichiometry N is a count of units in the complex or per binding partner.

For “Glycine oxidase from Pseudoalteromonas luteoviolacea CPMOR-2 (PlGoxA) (enzyme)”, the stoichiometry N in test [1] and in test [2] was 4 throughout.

For the origin of these results see publication PMC5886718.
